Experiments:
[1] = biological target: pre-existing anti-scFv903 antibodies in human serum H54 (human); test: competition ADA bridging ELISA
[2] = biological target: pre-existing anti-scFv903 antibodies in human serum H80 (human); test: competition ADA bridging ELISA
[3] = biological target: pre-existing anti-scFv903 antibodies in human serum H46 (human); test: competition ADA bridging ELISA
[4] = biological target: pre-existing anti-scFv903 antibodies in human serum H60 (human); test: competition ADA bridging ELISA
[5] = biological target: pre-existing anti-scFv903 antibodies in human serum H8 (human); test: competition ADA bridging ELISA
[6] = biological target: pre-existing anti-scFv903 antibodies in human serum H125 (human); test: competition ADA bridging ELISA
[7] = biological target: pre-existing anti-scFv903 antibodies in human serum H29 (human); test: competition ADA bridging ELISA
[8] = biological target: pre-existing anti-scFv903 antibodies in human serum H79 (human); test: competition ADA bridging ELISA
[9] = biological target: pre-existing anti-scFv903 antibodies in human serum H19 (human); test: competition ADA bridging ELISA
[10] = biological target: pre-existing anti-scFv903 antibodies in human serum H49 (human); test: competition ADA bridging ELISA
[11] = biological target: pre-existing anti-scFv903 antibodies in human serum H96 (human); test: competition ADA bridging ELISA
[12] = biological target: pre-existing anti-scFv903 antibodies in human serum H69 (human); test: competition ADA bridging ELISA
[13] = biological target: pre-existing anti-scFv903 antibodies in human serum H40 (human); test: competition ADA bridging ELISA
[14] = biological target: pre-existing anti-scFv903 antibodies in human serum H56 (human); test: competition ADA bridging ELISA
[15] = biological target: pre-existing anti-scFv903 antibodies in human serum H115 (human); test: competition ADA bridging ELISA
[16] = biological target: pre-existing anti-scFv903 antibodies in human serum H135 (human); test: competition ADA bridging ELISA
[17] = biological target: pre-existing anti-scFv903 antibodies in human serum H105 (human); test: competition ADA bridging ELISA
[18] = biological target: pre-existing anti-scFv903 antibodies in human serum H14 (human); test: competition ADA bridging ELISA
[19] = biological target: pre-existing anti-scFv903 antibodies in human serum H50 (human); test: competition ADA bridging ELISA
[20] = biological target: pre-existing anti-scFv903 antibodies in human serum H64 (human); test: competition ADA bridging ELISA
[21] = biological target: pre-existing anti-scFv903 antibodies in human serum H26 (human); test: competition ADA bridging ELISA
[22] = biological target: pre-existing anti-scFv903 antibodies in human serum H63 (human); test: competition ADA bridging ELISA
[23] = biological target: pre-existing anti-scFv903 antibodies in human serum H55 (human); test: competition ADA bridging ELISA
[24] = biological target: pre-existing anti-scFv903 antibodies in human serum H116 (human); test: competition ADA bridging ELISA
[25] = biological target: pre-existing anti-scFv903 antibodies in human serum H15 (human); test: competition ADA bridging ELISA
[26] = biological target: pre-existing anti-scFv903 antibodies in human serum H76 (human); test: competition ADA bridging ELISA
[27] = biological target: pre-existing anti-scFv903 antibodies in human serum H81 (human); test: competition ADA bridging ELISA
[28] = biological target: pre-existing anti-scFv903 antibodies in human serum H3 (human); test: competition ADA bridging ELISA
[29] = biological target: pre-existing anti-scFv903 antibodies in human serum H20 (human); test: competition ADA bridging ELISA
[30] = biological target: pre-existing anti-scFv903 antibodies in human serum H66 (human); test: competition ADA bridging ELISA
[31] = biological target: pre-existing anti-scFv903 antibodies in human serum H21 (human); test: competition ADA bridging ELISA
[32] = biological target: pre-existing anti-scFv903 antibodies in human serum H59 (human); test: competition ADA bridging ELISA
[33] = biological target: pre-existing anti-scFv903 antibodies in human serum H53 (human); test: competition ADA bridging ELISA
[34] = biological target: pre-existing anti-scFv903 antibodies in human serum H19 (human); test: competition ADA bridging ELISA, 100 mcg/ml competitor
[35] = biological target: pre-existing anti-scFv903 antibodies in human serum H49 (human); test: as above
[36] = biological target: pre-existing anti-scFv903 antibodies in human serum H40 (human); test: as above
[37] = biological target: pre-existing anti-scFv903 antibodies in human serum H56 (human); test: as above
[38] = biological target: pre-existing anti-scFv903 antibodies in human serum H115 (human); test: as above
[39] = biological target: pre-existing anti-scFv903 antibodies in human serum H135 (human); test: as above
[40] = biological target: pre-existing anti-scFv903 antibodies in human serum H14 (human); test: as above
[41] = biological target: pre-existing anti-scFv903 antibodies in human serum H50 (human); test: as above
[42] = biological target: pre-existing anti-scFv903 antibodies in human serum H55 (human); test: as above
[43] = biological target: pre-existing anti-scFv903 antibodies in human serum H20 (human); test: as above
[44] = biological target: pre-existing anti-scFv903 antibodies in human serum H66 (human); test: as above
[45] = biological target: pre-existing anti-scFv903 antibodies in human serum H53 (human); test: as above
[46] = biological target: pre-existing anti-scFv903 antibodies in human serum H86 (human); test: competition ADA bridging ELISA

B1: scFv105 (scFv)
scFv: DIVMTQSPSSLSASVGDRVTLTCTASQSVSNDVVWYQQRPGKAPKLLIYSAFNRYTGVPSRFSGRGYGTDFTLTISSLQPEDVAVYYCQQDYNSPRTFGQGTKLEVKRGGGGSGGGGSGGGGSSGGGSQVQLVQSGAEVKKPGASVKVSCTASGYTFTHYGMNWVRQAPGKGLEWMGWINTYTGEPTYADKFKDRFTFSLETSASTVYMELTSLTSDDTAVYYCARERGDAMDYWGQGTLVTVSS
B1 showed a signal change in competition ELISA (% reduction in OD) [1] of -61%, a signal change in competition ELISA (% reduction in OD) [2] of -51% and a signal change in competition ELISA (% reduction in OD) [3] of -67%. It also gave a signal change in competition ELISA (% reduction in OD) [4] of -11%, a signal change in competition ELISA (% reduction in OD) [5] of -23% and a signal change in competition ELISA (% reduction in OD) [6] of -55%. The signal change in competition ELISA (% reduction in OD) [7] was -51%, the signal change in competition ELISA (% reduction in OD) [8] was -41% and the signal change in competition ELISA (% reduction in OD) [9] was -73%. It also gave a signal change in competition ELISA (% reduction in OD) [10] of -26%, a signal change in competition ELISA (% reduction in OD) [11] of -29% and a signal change in competition ELISA (% reduction in OD) [12] of -88%. The signal change in competition ELISA (% reduction in OD) [13] was 4%, the signal change in competition ELISA (% reduction in OD) [14] was -5% and the signal change in competition ELISA (% reduction in OD) [15] was -60%. It also gave a signal change in competition ELISA (% reduction in OD) [16] of -23%, a signal change in competition ELISA (% reduction in OD) [17] of 2% and a signal change in competition ELISA (% reduction in OD) [18] of -4%. The signal change in competition ELISA (% reduction in OD) [19] was -31%, the signal change in competition ELISA (% reduction in OD) [20] was -55% and the signal change in competition ELISA (% reduction in OD) [21] was -80%. It also gave a signal change in competition ELISA (% reduction in OD) [22] of -80%, a signal change in competition ELISA (% reduction in OD) [23] of -72% and a signal change in competition ELISA (% reduction in OD) [24] of -43%. For the same binder, the signal change in competition ELISA (% reduction in OD) [25] was -69%, the signal change in competition ELISA (% reduction in OD) [26] was -18% and the signal change in competition ELISA (% reduction in OD) [27] was -18%. For the same binder, the signal change in competition ELISA (% reduction in OD) [28] was -59%, the signal change in competition ELISA (% reduction in OD) [29] was -19% and the signal change in competition ELISA (% reduction in OD) [30] was -3%. For the same binder, the signal change in competition ELISA (% reduction in OD) [31] was -3%, the signal change in competition ELISA (% reduction in OD) [32] was -94% and the signal change in competition ELISA (% reduction in OD) [33] was -18%. The % reduction in OD [34] was -73.5%, the % reduction in OD [35] was -26.1% and the % reduction in OD [36] was 3.5%. The % reduction in OD [37] was -4.8%, the % reduction in OD [38] was -60.4% and the % reduction in OD [39] was -23.1%. For the same binder, the % reduction in OD [40] was -3.6%, the % reduction in OD [41] was -31.1% and the % reduction in OD [42] was -71.9%. For the same binder, the % reduction in OD [43] was -18.8%, the % reduction in OD [44] was -2.6% and the % reduction in OD [45] was -18.4%.

B2: scFv 961 (scFv)
scFv: EIVMTQSPSTLSASVGDRVIITCQASEIIHSWLAWYQQKPGKAPKLLIYLASTLASGVPSRFSGSGSGAEFTLTISSLQPDDFATYYCQNVYLASTNGANFGQGTKLTVLGGGGGSGGGGSGGGGSGGGGSEVQLVESGGGSVQPGGSLRLSCTASGFSLTDYYYMTWVRQAPGKGLEWVGFIDPDDDPYYATWAKGRFTISRDTSKNTVYLQMNSLRAEDTATYYCAGGDHNSGWGLDIWGQGTTVTVSS
For B2, the signal change in competition ELISA (% reduction in OD) [1] was -69%, the signal change in competition ELISA (% reduction in OD) [2] was -55% and the signal change in competition ELISA (% reduction in OD) [3] was -40%. The signal change in competition ELISA (% reduction in OD) [46] was -68%, the signal change in competition ELISA (% reduction in OD) [4] was -1% and the signal change in competition ELISA (% reduction in OD) [5] was -89%. It also gave a signal change in competition ELISA (% reduction in OD) [6] of 3%, a signal change in competition ELISA (% reduction in OD) [7] of -22% and a signal change in competition ELISA (% reduction in OD) [8] of -74%. It also gave a signal change in competition ELISA (% reduction in OD) [9] of -64%, a signal change in competition ELISA (% reduction in OD) [10] of -9% and a signal change in competition ELISA (% reduction in OD) [11] of -78%. It also gave a signal change in competition ELISA (% reduction in OD) [12] of -6%, a signal change in competition ELISA (% reduction in OD) [13] of -2% and a signal change in competition ELISA (% reduction in OD) [14] of -24%. The signal change in competition ELISA (% reduction in OD) [15] was -31%, the signal change in competition ELISA (% reduction in OD) [16] was -75% and the signal change in competition ELISA (% reduction in OD) [17] was 7%. For the same binder, the signal change in competition ELISA (% reduction in OD) [19] was -73%, the signal change in competition ELISA (% reduction in OD) [20] was -14% and the signal change in competition ELISA (% reduction in OD) [21] was 0%. The signal change in competition ELISA (% reduction in OD) [22] was -36%, the signal change in competition ELISA (% reduction in OD) [23] was -15% and the signal change in competition ELISA (% reduction in OD) [24] was -33%. For the same binder, the signal change in competition ELISA (% reduction in OD) [26] was -36%, the signal change in competition ELISA (% reduction in OD) [27] was -9% and the signal change in competition ELISA (% reduction in OD) [28] was -2%. It also gave a signal change in competition ELISA (% reduction in OD) [29] of -23%, a signal change in competition ELISA (% reduction in OD) [31] of -81% and a signal change in competition ELISA (% reduction in OD) [32] of -67%. It also gave a signal change in competition ELISA (% reduction in OD) [33] of -31%, a % reduction in OD [34] of -63.7% and a % reduction in OD [35] of -8.8%. It also gave a % reduction in OD [36] of -1.7%, a % reduction in OD [37] of -23.8% and a % reduction in OD [38] of -31.4%. The % reduction in OD [39] was -74.7%, the % reduction in OD [41] was -72.8% and the % reduction in OD [42] was -14.7%. It also gave a % reduction in OD [43] of -23.5% and a % reduction in OD [45] of -30.9%.

— US20210214461A1
